From patent US20190330298A1 (WORG PHARMACEUTICALS ZHEJIANG, published 2019)

Biological target: T1, HLA-DRB1*0301 molecule (HLA-DR3 MHC class II of DR3tg mice) (human)
T1 construct: whole, on cells; MHC class II expressed by DR3tg mice (no mouse MHC II); the responding T cells came from DR3 mice; also called MHC II
Assay: in vivo presentation test in DR3tg mice; binding inferred from IFN-γ response of peptide-specific T cells to isolated CD11c+ cells
Experimental: DR3tg or DR2tg mice were injected with 100 μg of peptide in 100 μl PBS subcutaneously (s.c.) in the flank. Control animals received a s.c. injection of 100 μl PBS. After 2 hours, spleens were harvested and single-cell suspensions were made. CD11c⁺ cells were positively selected using CD11c microbeads according to the manufacturer's instructions (Miltenyi Biotec, Bergisch Gladbach, Germany). Average purities of >92% were reached. 5×10⁴ CD11c⁺ cells were co-cultured with 5×10⁴ CD4⁺ cells in round bottom 96-well plates in X-vivo 15 medium (supplemented with 2 mM L-glutamine, 50 U/mL penicillin and 50 U/mL streptomycin; Lonza). […] After 48 hours, supernatant of these co-cultures was collected and CD4⁺ T cell activation was analysed by IFN-γ ELISA (R&D Systems, Abingdon, UK). In a parallel experiment, CD4⁺ T cell responses towards peptide added in vitro were assessed to make sure the T cells recognize the peptides presented by the CD11c⁺ cells.
In FIG. 15 the ability of HIP-115NE3 (insoluble peptide) and that of its soluble version, HIP-115NE3-KKK, to be picked up and presented by MHC II molecules present on dendritic cells (DC) upon sc. injection in an in vivo setting (DR3tg mice) was compared. […] T cell activity response was measured by production of IFN-γ. […]

B1: HIP-115NE3-KKK (peptide)
peptide: H-KKKVIFKKISRDKSVTIYLGKKK-NH2
notes: Synthetic; HIP-115NE3 with KKK at both ends
- binding result: binds
